Measurements published in article PMC8410055.

Target: SARS-CoV-2 spike protein expressed on transfected HEK293T cells (UniProt P0DTC2)
Experiment: flow cytometry on cells

L-SIGN/Fc: extracellular domain of L-SIGN (amino acids 78–399) fused to the human IgG2 Fc domain (from UniProt Q9H2X3) EPN>QPD
response (% Fc binding (positive population)): 1.58
